Assay results: the supplement of paper PMC11246515
± gives the standard deviation of the averaged measurements.

Assay: total protein half-life in vivo (active degradation + dilution); higher = more stable protein
[1] = E. coli NCM3722 delta-clpP delta-lon delta-hslV, growth: N-lim chemostat, doubling time 6 h
[2] = E. coli NCM3722 delta-clpP, growth: N-lim chemostat, doubling time 6 h
[3] = E. coli NCM3722 delta-hslV, growth: N-lim chemostat, doubling time 6 h
[4] = E. coli NCM3722 delta-lon, growth: N-lim chemostat, doubling time 6 h
[5] = E. coli NCM3722 delta-smpB, growth: N-lim chemostat, doubling time 6 h
[6] = wild type E. coli NCM3722, growth: C-lim chemostat, doubling time 3 h
[7] = wild type E. coli NCM3722, growth: C-lim chemostat, doubling time 6 h
[8] = wild type E. coli NCM3722, growth: C-lim chemostat, doubling time 12 h
[9] = wild type E. coli NCM3722, growth: N-lim chemostat, doubling time 6 h
[10] = wild type E. coli NCM3722, growth: N-lim chemostat, doubling time 12 h
[11] = wild type E. coli NCM3722, growth: P-lim chemostat, doubling time 6 h
[12] = wild type E. coli NCM3722, growth: P-lim chemostat, doubling time 12 h

| Sequence | total protein half-life in vivo [1] [h] | total protein half-life in vivo [2] [h] | total protein half-life in vivo [3] [h] | total protein half-life in vivo [4] [h] | total protein half-life in vivo [5] [h] | total protein half-life in vivo [6] [h] | total protein half-life in vivo [7] [h] | total protein half-life in vivo [8] [h] | total protein half-life in vivo [9] [h] | total protein half-life in vivo [10] [h] | total protein half-life in vivo [11] [h] | total protein half-life in vivo [12] [h] |
| --- | --- | --- | --- | --- | --- | --- | --- | --- | --- | --- | --- | --- |
| MAQQTPLYEQHTLCGARMVDFHGWMMPLHYGSQIDEHHAVRTDAGMFDVSHMTIVDLRGSRTREFLRYLLANDVAKLTKSGKALYSGMLNASGGVIDDLIVYYFTEDFFRLVVNSATREKDLSWITQHAEPFGIEITVRDDLSMIAVQGPNAQAKAATLFNDAQRQAVEGMKPFFGVQAGDLFIATTGYTGEAGYEIALPNEKAADFWRALVEAGVKPCGLGARDTLRLEAGMNLYGQEMDETISPLAANMGWTIAWEPADRDFIGREALEVQREHGTEKLVGLVMTEKGVLRNELPVRFTDAQGNQHEGIITSGTFSPTLGYSIALARVPEGIGETAIVQIRNREMPVKVTKPVFVRNGKAVA | 4.25 ± 0.29 | 3.94 ± 0.048 | 4.22 ± 0.35 | 4.16 ± 0.17 | 3.94 ± 0.068 | 3.01 ± 0.22 | 5.71 ± 0.81 | 10.5 ± 0.62 | 3.81 ± 0.2 | 6.76 ± 0.92 | 5.88 ± 0.12 | 11.4 ± 0.68 |
| MAQVAIITASDSGIGKECALLLAQQGFDIGITWHSDEEGAKDTAREVVSHGVRAEIVQLDLGNLPEGALALEKLIQRLGRIDVLVNNAGAMTKAPFLDMAFDEWRKIFTVDVDGAFLCSQIAARQMVKQGQGGRIINITSVHEHTPLPDASAYTAAKHALGGLTKAMALELVRHKILVNAVAPGAIATPMNGMDDSDVKPDAEPSIPLRRFGATHEIASLVVWLCSEGANYTTGQSLIVDGGFMLANPQFNPE | 5.0837 ± 0.0019 | 4.64 ± 0.2 | 5.14 ± 0.54 | 4.36 ± 0.089 | 4.64 ± 0.24 | 2.863 ± 0.007 | 5.19 ± 0.38 | 11 ± 0.19 | 4.81 ± 0.42 | 7.86 ± 0.13 | 5.6 ± 0.22 | 10.9 ± 0.34 |
| MARLAAFDMDGTLLMPDHHLGEKTLSTLARLRERDITLTFATGRHALEMQHILGALSLDAYLITGNGTRVHSLEGELLHRDDLPADVAELVLYQQWDTRASMHIFNDDGWFTGKEIPALLQAFVYSGFRYQIIDVKKMPLGSVTKICFCGDHDDLTRLQIQLYEALGERAHLCFSATDCLEVLPVGCNKGAALTVLTQHLGLSLRDCMAFGDAMNDREMLVSVGSGFIMGNAMPQLRAELPHLPVIGHCRNQAVSHYLTHWLDYPHLPYSPE | 5.84 ± 0.52 |  |  | 1.61 |  |  |  |  |  |  |  |  |
| MARLFTLSESKYYLMALDAGTGSIRAVIFDLEGNQIAVGQAEWRHLAVPDVPGSMEFDLNKNWQLACECMRQALHNAGIAPEYIAAVSACSMREGIVLYNNEGAPIWACANVDARAAREVSELKELHNNTFENEVYRATGQTLALSAIPRLLWLAHHRSDIYRQASTITMISDWLAYMLSGELAVDPSNAGTTGLLDLTTRDWKPALLDMAGLRADILSPVKETGTLLGVVSSQAAELCGLKAGTPVVVGGGDVQLGCLGLGVVRPAQTAVLGGTFWQQVVNLAAPVTDPEMNVRVNPHVIPGMVQAESISFFTGLTMRWFRDAFCAEEKLIAERLGIDTYTLLEEMASRVPPGSWGVMPIFSDRMRFKTWYHAAPSFINLSIDPDKCNKATLFRALEENAAIVSACNLQQIADFSNIHPSSLVFAGGGSKGKLWSQILADVSGLPVNIPVVKEATALGCAIAAGVGAGIFSSMAETGERLVRWERTHTPDPEKHELYQDSRDKWQAVYQDQLGLVDHGLTTSLWKAPGL | 4.78 ± 0.065 | 1.36 |  | 2.49 | 1.27 | 1.55 ± 0.35 | 2.83 ± 0.42 | 2.92 ± 0.031 |  |  |  |  |
| MARSKTAQPKHSLRKIAVVVATAVSGMSVYAQAAVEPKEDTITVTAAPAPQESAWGPAATIAARQSATGTKTDTPIQKVPQSISVVTAEEMALHQPKSVKEALSYTPGVSVGTRGASNTYDHLIIRGFAAEGQSQNNYLNGLKLQGNFYNDAVIDPYMLERAEIMRGPVSVLYGKSSPGGLLNMVSKRPTTEPLKEVQFKAGTDSLFQTGFDFSDSLDDDGVYSYRLTGLARSANAQQKGSEEQRYAIAPAFTWRPDDKTNFTFLSYFQNEPETGYYGWLPKEGTVEPLPNGKRLPTDFNEGAKNNTYSRNEKMVGYSFDHEFNDTFTVRQNLRFAENKTSQNSVYGYGVCSDPANAYSKQCAALAPADKGHYLARKYVVDDEKLQNFSVDTQLQSKFATGDIDHTLLTGVDFMRMRNDINAWFGYDDSVPLLNLYNPVNTDFDFNAKDPANSGPYRILNKQKQTGVYVQDQAQWDKVLVTLGGRYDWADQESLNRVAGTTDKRDDKQFTWRGGVNYLFDNGVTPYFSYSESFEPSSQVGKDGNIFAPSKGKQYEVGVKYVPEDRPIVVTGAVYNLTKTNNLMADPEGSFFSVEGGEIRARGVEIEAKAALSASVNVVGSYTYTDAEYTTDTTYKGNTPAQVPKHMASLWADYTFFDGPLSGLTLGTGGRYTGSSYGDPANSFKVGSYTVVDALVRYDLARVGMAGSNVALHVNNLFDREYVASCFNTYGCFWGAERQVVATATFRF | 6.92 ± 0.69 | 6.41 ± 0.62 | 6.62 ± 0.65 | 6.11 ± 0.76 |  | 3.36 ± 0.23 | 6.64 ± 0.37 | 14.3 ± 1.2 | 6.14 ± 0.072 | 11.6 ± 6.1 |  | 13 ± 0.45 |
| MASGDLVRYVITVMLHEDTLTEINELNNYLTRDGFLLTMTDDEGNIHELGTNTFGLISTQSEEEIRELVSGLTQSATGKDPEITITTWEEWNSNRK | 6.09 ± 0.66 | 4.87 | 4.69 |  | 4.44 ± 0.47 | 3.04 ± 0.33 | 4.88 ± 0.37 | 10.1 | 6.08 | 8.21 | 4.86 ± 0.83 | 11.1 ± 0.71 |
